Assay results reported in patent US20190127459 (published 2019).

Molecular target: T1, mouse IL-22R (mouse, UniProt Q80XZ4)
T1 chain: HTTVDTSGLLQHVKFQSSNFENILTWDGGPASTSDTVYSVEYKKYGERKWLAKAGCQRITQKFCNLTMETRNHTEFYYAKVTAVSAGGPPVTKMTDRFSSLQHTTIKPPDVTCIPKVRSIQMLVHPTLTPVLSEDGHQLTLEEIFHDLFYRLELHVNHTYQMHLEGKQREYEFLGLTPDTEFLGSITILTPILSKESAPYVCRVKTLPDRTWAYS

B1: 230C9 (antibody, V domains shown)
VH: QVQLVESGGGLVQPGGSLRLSCAASGFTFSSYDMNWVRQAPGKGLEWVSSIYNDASNTAYSDSVKGRFTISRDNSKNTLYLQMNSLRAEDTAVYYCAKVGFSGTYYSESWGQGTLVTVSS
VL: SYELTQPSSVSVALGQTARITCQGGYYAHWYQQKPGQAPVLVIYGQNNRPSGIPERFSGSGAGNTATLTISRAQAEDEADYYCQSGSSSSNAVFGGGTKLTVL
B1: no binding.
